# T1: human BDCA2 (human, UniProt Q8WTT0 1-213)
# T1 construct: whole, on cells; also called hBDCA2; Blood dendritic cell antigen 2
# T1 sequence (looked up): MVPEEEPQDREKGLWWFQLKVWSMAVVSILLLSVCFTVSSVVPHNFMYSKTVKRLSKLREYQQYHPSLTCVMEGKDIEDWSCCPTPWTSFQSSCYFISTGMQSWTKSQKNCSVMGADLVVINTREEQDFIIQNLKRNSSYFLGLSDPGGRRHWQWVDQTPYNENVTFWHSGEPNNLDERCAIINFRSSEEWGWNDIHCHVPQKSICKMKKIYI
# T2: Recombinant Human BDCA2 (human, UniProt Q8WTT0 45-213, limits assumed)
# T2 construct: also called hBDCA2 (SPR analyte); human BDCA2 antigen
# T2 sequence (looked up): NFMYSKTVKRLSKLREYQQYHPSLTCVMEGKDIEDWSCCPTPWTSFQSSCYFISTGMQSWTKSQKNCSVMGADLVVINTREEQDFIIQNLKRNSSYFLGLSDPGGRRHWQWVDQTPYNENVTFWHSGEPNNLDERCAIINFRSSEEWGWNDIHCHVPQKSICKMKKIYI
# T3: cynomolgus BDCA2 (cynomolgus monkey, UniProt A0A2K5UWP4 1-212)
# T3 construct: whole, on cells; also called Cyno BDCA2; cynoBDCA2
# T3 sequence: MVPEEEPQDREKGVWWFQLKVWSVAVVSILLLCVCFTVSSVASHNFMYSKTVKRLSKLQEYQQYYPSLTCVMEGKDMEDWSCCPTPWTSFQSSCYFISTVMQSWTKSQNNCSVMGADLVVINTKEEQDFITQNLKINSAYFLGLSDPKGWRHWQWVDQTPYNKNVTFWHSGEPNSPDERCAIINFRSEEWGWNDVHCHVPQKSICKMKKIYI
# B1: mab001c (antibody, V domains shown)
# VH: QIQLVQSGPELKKPGETVKISCKASGYTFTDFSMHWVKQAPGKGLKWMGWINTETGEPTYADDFKGRFAFSLETSASTAFLQINNLKNDDTTTYFCSRGGDGHPYWYFAVWGAGTTVTVSS
# VL: DIVLTQSPASLAVSLGQRATISCRASQSVSTSSYSYMHWYQQKPGQPPKLLIKYASILESGVPARFSGSGSGTDFTLNIHPVEEEDTATYYCQHSWEIPFTFGSGTKLEIK
# B2: BIIB059 (antibody, V domains shown)
# VH: DVQLVESGGGLVKPGGSLRLSCAASGFTFSTYTMSWVRQAPGKGLEWVATISPGDSFGYYYPDSVQGRFTISRDNAKNSLYLQMNSLRAEDTAVYYCTRDIYYNYGAWFAYWGQGTLVTVSS
# VL: DIQLTQSPSSLSASVGDRVTITCKASQSVDYDGDSYMNWYQQKPGKAPKLLIYAASTLESGVPSRFSGSGSGTDFTLTISSLQPEDFATYYCQQANEDPRTFGQGTKVEIKR
# B3: mAb034 (antibody, V domains shown)
# VH: DVQLQESGPGLVKPSQSLSLTCSVTGYSITSGYYWNWIRQFPGNKLECMGYITYDGSNNYNPSLKDRISITRDTSKNQFFLKLNSVTTEDTATYYCARGGDYDDGGFAYWGHGTLVTVSA
# VL: DIQMTQSPVSLSASVGETVTITCRASGNIHNYLAWYQQKQGKSPQLLVYNAKSLVDGVPSRFSGSGSGTQYSLKINSLQPEDFGSYYCQHFWIIPYTFGGGTKLEIK
# notes: Mouse hybridoma antibody
# B4: mAb016 (antibody, V domains shown)
# VH: QVQLKQSGPGLVQPSQSLSITCTVSGFSLTSYGVHWVRQSPGKGLEWLGVIWSGESTDYDAAFISRLSISKDNSKSQVFFRMNSLQADDSAIYYCARRRSHYYGYVMDYWGQGTSVTVSS
# VL: DIVLTQSPASLAVSLGQRATISCKASQSVDYDGVGYLNWYQHKPGQPPKLLIYAASNLESGIPARFSGSGSGTDFTLNIHPVEEEDAATYYCQQSNEDPPTFGSGTKLEIK
# notes: Mouse hybridoma antibody
# Experiments:
# human BDCA2 [1] = molecular target: T1, human BDCA2; test: FACS on CHOK1-hBDCA2 cells; EC50 table under the plot, unit from the x axis (nM)
# Procedure: (§1) The cells were recovered and resuspended to 2×10⁶/mL with FACS buffer (PBS+2% FBS). The cells were added to 3799 cell plates (Corning) at 100 μL/well, and the supernatant was discarded after centrifugation at 300 g. The antibodies were serially diluted with FACS buffer (Id.), the diluted antibodies were added to centrifuged cells and the cells were resuspended. The cells were incubated at 4° C. for 1 h. The incubated cells were centrifuged at 300 g for 5 min and washed twice with FACS buffer. 100 μL […] anti-Human IgG (H+L) Cross-Adsorbed Secondary Antibody-Alexa Fluor 488 (Sigma, A11013; 1:1000) secondary antibody was added, washed twice with FACS buffer after incubation at 4° C. for 1 h, resuspended with PBS, analyzed with FACS (BD FACS CantoTM II) instrument and curve fitted with GraphPad Prism6, and EC₅₀ values were calculated.
# human BDCA2 [2] = molecular target: T1, human BDCA2; test: FACS on CHOK1-hBDCA2 cells; EC50 table under the plot, unit from the x axis (nM) [continued) c.]
# Procedure: (§2) The cells were recovered and resuspended to 2×10⁶/mL with FACS buffer (PBS+2% FBS). The cells were added to 3799 cell plates (Corning) at 100 μL/well, and the supernatant was discarded after centrifugation at 300 g. The antibodies were serially diluted with FACS buffer (Id.), the diluted antibodies were added to centrifuged cells and the cells were resuspended. The cells were incubated at 4° C. for 1 h. The incubated cells were then centrifuged at […] for 5 min and washed twice with FACS buffer. 100 μL Donkey anti-Mouse IgG (H+L) Highly Cross-Adsorbed Secondary Antibody-Alexa Fluor 488 (Invitrogen, A21202; 1:1000) secondary antibody was added to the cells, which were washed twice with FACS buffer after incubation at 4° C. for 1 h, resuspended with PBS, analyzed with FACS (BD FACS CantoTM II) instrument. The curve was fitted with GraphPad Prism6, and EC₅₀ values were calculated.
# human BDCA2 [3] = molecular target: T1, human BDCA2; test: FACS on CHOK1-hBDCA2 cells; EC50 table under the plot, unit from the x axis (nM); remark: listed apart in the source
# Procedure: as §2
# human BDCA2 [4] = molecular target: T1, human BDCA2; test: FACS on CHOK1-hBDCA2 cells; EC50 table beside the plot, unit from the x axis (nM) [continued) c.]
# Procedure: as §1
# human BDCA2 [5] = molecular target: T1, human BDCA2; test: FACS on CHOK1-hBDCA2 cells; EC50 table under the plot, unit from the x axis (nM) [continued) e.]
# Procedure: as §2
# human BDCA2 [6] = molecular target: T1, human BDCA2; test: cell-based or functional assay
# Recombinant Human BDCA2 = molecular target: T2, Recombinant Human BDCA2; test: SPR (BIAcore), antibody captured by anti-human IgG (Fc), hBDCA2 as analyte, 1:1 model
# human BDCA2 [7] = molecular target: T1, human BDCA2; test: FACS, CHOK1-humanBDCA2 cells
# Procedure: The cells were recovered and resuspended to 2×10⁶/mL with FACS buffer (PBS+2% FBS). The resuspended cells were added to 3799 cell plates at 100 μL/well, and the supernatant was discarded after centrifugation at 300 g. […] The cells were incubated at 4° C. for 1 h. The incubated cells were centrifuged at […] for 5 min and washed twice with FACS buffer. 100 μL Goat anti-Human IgG (H+L) Cross-Adsorbed Secondary Antibody, Alexa Fluor 488 (Sigma, A11013; 1:1000) secondary antibody was added, washed twice with FACS buffer after incubation at 4° C. for 1 h. The cells were resuspended with PBS, then the fluorescence signal of antibodies bound to cell surface was analyzed with FACS (BD FACS CantoTM II) instrument and curves were fitted with GraphPad Prism6 to calculate EC₅₀ values for antibodies binding to BDCA2 antigen.
# human BDCA2 [8] = molecular target: T1, human BDCA2; test: FACS on CHOK1-hBDCA2 cells; EC50 table under the plot, unit from the x axis (nM); remark: listed apart in the source
# human BDCA2 [9] = molecular target: T1, human BDCA2; test: FACS, CHOK1-humanBDCA2 cells; remark: listed apart in the source
# human BDCA2 [10] = molecular target: T1, human BDCA2; test: FACS on CHOK1-hBDCA2 cells; EC50 table under the plot, unit from the x axis (nM); remark: listed apart in the source
# Procedure: as §1
# human BDCA2 [11] = molecular target: T1, human BDCA2; test: FACS on CHOK1-hBDCA2 cells; EC50 table under the plot, unit from the x axis (nM) [continued) d.]
# In short: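 Read-out: flow cytometry of Alexa Fluor 488 anti-mouse IgG signal (1:1000) on washed cells, EC₅₀ from curve fit. Antibody titrations were bound 1 h at 4° C in PBS+2% FBS before the secondary step, also 1 h at 4° C.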
# cynomolgus BDCA2 [12] = molecular target: T3, cynomolgus BDCA2; test: FACS on 293F-cynoBDCA2 cells; EC50 table under the plot, unit from the x axis (nM) [continued) e.]
# Procedure: as §2
# [13] = molecular target: T4, Human BDCA2 Fc recombinant protein (human); test: ELISA, coated humanBDCA2 Fc
# T4 construct: Human IgG1 Fc N-terminal of the BDCA2 extracellular domain (Asn45-Ile213), fused by a linker; also called BDCA2-Fc protein
# Procedure: HumanBDCA2 Fc protein or cynoBDCA2 His protein was diluted with PBS to 1 μg/mL and added to ELISA microplates at 100 μL/well and incubated at 4° C. overnight. The plates were blocked with ELISA blocking solution (PBS phosphate buffer with 1% BSA, pH 7.4, the percentages representing mass percentages) at 37° C. for 2 hours. Sequential 10-fold serial dilutions of antibodies were added at 8 concentrations (0.0001 nM-100 nM, including 0 point control) in total at 100 μL/well. The plates were incubated at 37° C. for 1 hour, then washed 3 times and after anti-mouse IgG (Fab specific)-HRP (Sigma, A3682; 1: 5000 dilution) secondary antibodies were added at 100 μL/well, were incubated at 37° C. for 1 h. The plates were washed 3 times, TMB development fluid (EL0009, Huzhou Ying Chuang Biotechnology) was added at 100 μL/well and 50 μL 1N hydrochloric acid was added after incubation at 37° C. for 10 min to stop the development reaction. OD450 nm values were read with ELISA plate reader and the curve was fitted with GraphPad Prism6, and EC₅₀ values were calculated.
# cynomolgus BDCA2 [14] = molecular target: T3, cynomolgus BDCA2; test: FACS on 293F-cynoBDCA2 cells; EC50 table under the plot, unit from the x axis (nM) [continued) c.]
# Procedure: as §2
binder,measurement,setting,value
B1,EC50,human BDCA2 [1],1.9 nM
B2,EC50,human BDCA2 [2],2.48 nM
same,EC50,human BDCA2 [3],2.17 nM
same,EC50,human BDCA2 [1],3.45 nM
same,EC50,human BDCA2 [4],2 nM
same,EC50,human BDCA2 [5],1.91 nM
same,"EC50 (nM), inhibition of CpG-A stimulated IFNα release from human PBMC",human BDCA2 [6],0.04 nM
same,Kd,Recombinant Human BDCA2,1.07 nM
same,EC50,human BDCA2 [7],3.1 nM
same,EC50,human BDCA2 [8],2.17 nM
same,EC50,human BDCA2 [9],1.3 nM
same,EC50,human BDCA2 [10],1.91 nM
same,EC50,human BDCA2 [11],1.09 nM
B3,EC50,cynomolgus BDCA2 [12],1.96 nM
same,EC50,human BDCA2 [5],0.705 nM
same,EC50,[13],< 0.3 nM
B4,EC50,human BDCA2 [2],1.33 nM
same,EC50,cynomolgus BDCA2 [14],1.78 nM

# Reference: patent publication US20250346673A1 (DUALITY BIOLOGICS SUZHOU, published 2025)
